Results on ten molecules are retold here after patent US20240239875A1 (published 2024).

Changes are numbered by the printed parent chain.

A word on the EC50: it is the concentration giving half of the maximal effect. A low value points to higher potency in that assay.

B1: 3-E13-A (antibody, V domains shown)
VH: EVQLQQSGPELVKPGASVKMSCKASGYTFTDYNIHWVKQSHGKSLEWIGYINPNNGGTDYNQKFQGKATLTVNKSSSTAYMELRSLTSEDFAVYYCARGGFYGNYGAYYGMDFWGQGTSVTVSS
VL: DIQMTQSPASLSASVGETVTITCRTSENIYSHLAWYQQTQGKSPQLLVYNAKTLAEGVPSRFSGSGSGTHFSLKINSLQPEDFGSYYCQHHYGIPPEFGGGTKLEIK
B2: 6-C19-A (antibody, V domains shown)
VH: B1 VH with N73D, F91S, A107S
VL: B1 VL with Q45H, H70Q, Y87F
B3: 5-H22-A (antibody, V domains shown)
VH: QVQLQQSGAELVRPGASVTLSCKASGYTFTDYEMHWMKQTPVHGLEWIGAIDLETGGTVYNQKFKGKAILTADKSSNTAYMALRSLTSEDSAVYYCTREFPHYYGSRYGFPYWGQGTLVTVSA
VL: QIVLTQSPAIMSASPGEKVTITCSASSSVSYMHWLQQKPGTSPKLWIYSTSNLASGVPARFSGSGSGTSYSLTISRMEAEDAATYYCQQRSSYPYTFGGGTKLEIK
B4: 4-C3-A (antibody, V domains shown)
VH: EVQLQQSGPELVKPGASVKISCKASGYSFTGYYMHWVKQSHGNILDWIGYIYPYNGVSSYNQKFKGKATLTVDKSSSTAYMELRSLTSEASAVYYCARAYGSSYDYYYGLDYWGQGTSVTVSS
VL: DIVLTQSPASLAVSLGQRATISCKASQSVDYDGAGYMNWYQQKPGQPPKLLISSASNLQSGIPARFSGSGSGTDFTLNIHPVEEEDAATYYCQQSNDDPYTFGGGTKLEIK
B5: 2-P2-A (antibody, V domains shown)
VH: EVQLQQSGAELVRPGSSVKMSCKTSGYTFTSYGINWVKQRPGQGLEWIGYIYIGNGYTEYNEKFKGKATLTSDTSSSTAYMQLSSLTSEDSAIYFCARGGVDYWGQGTTLTVSS
VL: DVLMTQTPLSLPVSLGDQASISCRSSQSIVHSNGNTYLEWYLQKPGQSPKLLIYKVSNRFSGVPDRFSGSGSGTDFTLKISRVEAEDLGVYYCFQGSHVPYTFGGGTKLEIK
B6: 9-P9-A (antibody, V domains shown)
VH: DVKLVESGEGLVKPGGSLKLSCAASGFSFSNFGMSWVRQTPEKRLEWVAYISSGGDYIYYADTVKGRFTISRDNARNTLYLQMSSLKSEDTAIYYCTRGYFDYWGQGTTLTVSS
VL: B5 VL with K55T, I111M, K112R
B7: 6-L8-A (antibody, V domains shown)
VH: EVQLQQSVAELVRPGASVKLSCTPSGFNIKNTYMHWMKQRPEQGLEWIGRINPANDDTKYAPKFQDKATITADTSSNTAYLQLSSLTSEDTAIYYCVYDVRWYFDVWGTGTTVTVSS
VL: DVVMTQTPLSLPVSLGDQASISCRSSQGLVHSNGNTYLHWYLQKPGQSPKLLIYKVSNRFSGVPDRFSGSGSGTDFTLKISRVEAEDLGVYFCSQSTHVPPTFGAGTKLELK
B8: 9-L13-A (antibody, V domains shown)
VH: QVQLKESGPGLVAPSQSLSITCTVSGFSLTSYAISWVRQPPGKGLEWLGLIWTGGGTNYNSALKSRLSISKDNSKSQIFLKMNSLQTDDTARYYCARGPPLIYYGDLYYFDYWGQGTTLTVSS
VL: DIQMTQSPSSLSASLGGKVTITCKASQDINKYIAWYQHKPGKGPRLLIHYTSTLQPGIPSRFSGSGSGRDYSFSISNLEPEDIATYYCLQYDNLWTFGGGTKLEIK
B9: 4-K13-A (antibody, V domains shown)
VH: QAYLQQSGAELVRPGASVKMSCKASGYTFTSYTVHWVKQTPRQGLEWIGAIYPGNVDTSYNQNFKGKATLTVDKSSSTAYMQLSSLTSEDSAVYFCARDGYYAMDYWGQGTSVTVSS
VL: not shown
B10: 8-N24-A (antibody, V domains shown)
VH: QVQLQQPGAELVKPGASVKVSCKASGYTFTSYWMHWVKQRPGQGLEWIGRIHPSDSDTNYYQKFKGKATLSVDKSSSTAYMQLSSLTSEDSAVYYCAIPLYSYDNSGGYYPMDYWGQGTSVTVSS
VL: DIVMTQSQKFMSTSVGDRVTITCKASQNVRTAVAWYQQKPGQSPKKLIYLASNRHTGVPDRFTGSGSGTDFTLAISNVQSEDLADYFCLQHWNYPFTFGSGTRLEIK

One experiment addresses T1, SARS-CoV-2 prefusion stabilized trimer protein (WIV02 isolate spike protein) (UniProt P0DTC2 14-1213). Briefly: ELISA.
Turning to B1, the 50% effective concentration (EC50) was determined as 0.08 nM.
In turn, B2 had an EC50 of 0.48 nM.
B3 came in with an EC50 of 18.5 nM.
As to B4, it took 0.08 nM to reach a half-maximal effect (EC50).
Take B5: the concentration for a half-maximal effect (EC50) is 0.12 nM.
The molecule B6 showed an EC50 of 0.05 nM.
For the molecule B7, the half-maximal effective concentration (EC50) amounted to 6.8 nM.
For B8, the concentration giving a half-maximal response (EC50) was determined as 8.18 nM.

The target in a further experiment is SARS-CoV-2 receptor binding domain (UniProt P0DTC2 319-541). Briefly: ELISA.
Take B3: the EC50 was found to be 166 nM.
On to B9, for which a half-maximal response (EC50) required 0.15 nM.
Molecule B5 had an EC50 of 89.5 nM.
Molecule B8 yielded a concentration for a half-maximal effect (EC50) of 26.9 nM.

The target in the next experiment is T1, SARS-CoV-2 prefusion stabilized trimer …. Nature of the experiment: ELISA. The source holds these as a separate data set. A general note: In an ELISA, binding on a coated surface is turned into a signal by an enzyme label.
B1 came in with an EC50 of 0.08 nM.
B2 came in with an EC50 of 0.49 nM.
In the case of B3, a half-maximal effect (EC50) was put at 75.5 nM.
The same measure, in the same setting: under B9 stands 0.14 nM.
The molecule B4 displayed an EC50 of 0.54 nM.
B5: it took 0.13 nM to reach a half-maximal effect (EC50).
For the molecule B6, a half-maximal effect (EC50) was put at 0.05 nM.
On the same count and under the same terms, under B7 stands 7.46 nM; under B8, 8.45 nM.

The target in another experiment is SARS-CoV-1 spike protein (SARS-CoV-1, UniProt P59594 14-1195). Briefly: ELISA.
B1 came in with an EC50 of 0.16 nM.
As for B2, the response was half-maximal at 1.98 nM (EC50).
In the case of B10, a half-maximal response (EC50) required 59 nM.
For B5, a half-maximal effect (EC50) was put at 0.19 nM.
With B6, the EC50 was determined as 0.06 nM.
Still for that read-out and setting: to B7 belongs 43.5 nM.
Take B8: it took 6.31 nM to reach a half-maximal effect (EC50).

For the next experiment, the target named is SARS-CoV-2 S2 domain (UniProt P0DTC2 686-1213). Briefly: ELISA.
The molecule B1 showed a concentration giving a half-maximal response (EC50) of 0.05 nM.
Consider B2, for which a half-maximal effect (EC50) was put at 0.39 nM.
The molecule B9 registered a half-maximal effective concentration (EC50) of 87 nM.
On to B4, for which a half-maximal response (EC50) required 81.1 nM.
Same read-out and setting: to B10 belongs 4.43 nM; to B5, 0.07 nM.
Molecule B6 had a concentration for a half-maximal effect (EC50) of 0.04 nM.
